In paper PMC9064986:

B1: BMPRII extracellular domain (ECD), wild type [human] / Recombinant human BMP10 growth factor (GF)-domain (R&D Systems) [human] (parent)
chain 1: SQNQERLCAFKDPYQQDLGIGESRISHENGTILCSKGSTCYGLWEKSKGDINLVKQGCWSHIGDPQECHYEECVVTTTPPSIQNGTYRFCCCSTDLCNVNFTENFPPPDTTPLSPPHSFNRDET
chain 2: NAKGNYCKRTPLYIDFKEIGWDSWIIAPPGYEAYECRGVCNYPLAEHLTPTKHAIIQALVHLKNSQKASKACCVPTKLEPISILYLDKGVVTYKFKYEGMAVSECGCR

Experiments:
[1] = variants of: B1; assay: SPR (Biacore); details: with Recombinant human BMP10 growth factor (GF)-domain (R&D Systems) [human], BMP10 immobilised on a CM5 Biacore chip
[2] = variants of: B1; assay: ELISA (prodomain displacement); details: with BMP10 growth factor (GF)-domain from Pro:BMP10 made in HEK EBNA cells [human]; BMPRII ECD at 125x excess over Pro:BMP10; lower reading = more prodomain displaced; parent: 0.42; read off a plot
[3] = variants of: B1; assay: native PAGE prodomain displacement (densitometry); details: with BMP10 growth factor (GF)-domain from Pro:BMP10 made in HEK EBNA cells [human], lower ratio = more prodomain displaced, read off a plot
[4] = BMPRII ECD at 2-fold excess (2x) over Pro:BMP10, parent: 0.59
[5] = BMPRII ECD at 5-fold excess (5x) over Pro:BMP10, parent: 0.46

chain 1 N100S
Kd ([1]; parent: 1.19e+03 nM): 1320 nM | koff ([1]; parent: 0.161): 0.14 s⁻¹ | kon ([1]; parent: 1.35e+05): 106000 M⁻¹ s⁻¹ | screen value [2]: 0.52 | screen value [3, 4]: 0.64 | screen value [3, 5]: 0.39

chain 1 Y41C
screen value [2]: 1 | screen value [3, 4]: 0.93 | screen value [3, 5]: 0.88

chain 1 Q66H
screen value [2]: 0.47 | screen value [3, 4]: 0.77 | screen value [3, 5]: 0.55

chain 1 G57E
screen value [2]: 1 | screen value [3, 4]: 0.93 | screen value [3, 5]: 0.88

chain 1 G63A
screen value [2]: 0.57 | screen value [3, 4]: 0.78 | screen value [3, 5]: 0.6

chain 1 E72K
screen value [2]: 0.42 | screen value [3, 4]: 0.49 | screen value [3, 5]: 0.19

chain 1 G63E
screen value [2]: 0.75 | screen value [3, 4]: 0.99 | screen value [3, 5]: 0.93

chain 1 S81P
screen value [2]: 0.3 | screen value [3, 4]: 0.7 | screen value [3, 5]: 0.66

chain 1 G42D
screen value [2]: 0.95 | screen value [3, 4]: 0.82 | screen value [3, 5]: 0.72

chain 1 G63W
screen value [2]: 0.67 | screen value [3, 4]: 0.9 | screen value [3, 5]: 0.77
